The results in this text go back to paper PMC4780735.

The chains are these.
B1: BaeS sensory kinase tagged with monomeric yellow fluorescent protein (BaeS-mYFP) [E. coli] / itself (parent)
chain: MKFWRPGITGKLFLAIFATCIVLLISMHWAVRISFERGFIDYIKHGNEQRLQLLSDALGEQYAQHGNWRFLRNNDRFVFQILRSFEHDNSEDKPGPGMPPHGWRTQFWVVDQNNKVLVGPRAPIPPDGTRRPILVNGAEVGAVIASPVERLTRNTDINFDKQQRQTSWLIVALATLLAALATFLLARGLLAPVKRLVDGTHKLAAGDFTTRVTPTSEDELGKLAQDFNQLASTLEKNQQMRRDFMADISHELRTPLAVLRGELEAIQDGVRKFTPETVASLQAEVGTLTKLVDDLHQLSMSDEGALAYQKAPVDLIPLLEVAGGAFRERFASRGLKLQFSLPDSITVFGDRDRLMQLFNNLLENSLRYTDSGGSLQISAGQRDKTVRLTFADSAPGVSDDQLQKLFERFYRTEGSRNRASGGSGLGLAICLNIVEAHNGRIIAAHSPFGGVSITVELPLERDLQREV

The assay covers variants of B1. The assay is described as follows: fluorescence anisotropy (homo-FRET) on cells. The conditions noted are these: with itself; ΔbaeS cells; Copper (10 μM) added at about 45 sec; plateau read at about 200-300 sec, before EDTA (100 μM); parent: 0.79; read off a plot.
Regarding MKFWRPGITGKLFLAIFATCIVLLISMHWAVRISFERGFIDYIKAGNEQRLQLLSDALGEQYAQAGNWRFLRNNDRFVFQILRSFEADNSEDKPGPGMPPAGWRTQFWVVDQNNKVLVGPRAPIPPDGTRRPILVNGAEVGAVIASPVERLTRNTDINFDKQQRQTSWLIVALATLLAALATFLLARGLLAPVKRLVDGTHKLAAGDFTTRVTPTSEDELGKLAQDFNQLASTLEKNQQMRRDFMADISHELRTPLAVLRGELEAIQDGVRKFTPETVASLQAEVGTLTKLVDDLHQLSMSDEGALAYQKAPVDLIPLLEVAGGAFRERFASRGLKLQFSLPDSITVFGDRDRLMQLFNNLLENSLRYTDSGGSLQISAGQRDKTVRLTFADSAPGVSDDQLQKLFERFYRTEGSRNRASGGSGLGLAICLNIVEAHNGRIIAAHSPFGGVSITVELPLERDLQREV [chain 1 H45A H65A H87A H101A], the response was found to be 0.95 r/r0.
